According to patent US20230193235A1:

Target: RBD (a.a. 333-529) of SARS-CoV-2 S fused to the Fc region of IgG1 (SARS-CoV-2; human) (UniProt P0DTC2)
Assay: BLI, RBD-IgG1 captured on anti-human Fc sensor, dimeric sACE22 as analyte (avid)

Work on “untagged sACE22.v2.4 manufactured in ExpiCHO-S cells (from UniProt Q9BYF1 19-732) (receptor)” yielded a kon of 200000 M⁻¹ s⁻¹.
